Test results reported in US20190060239A1, “Technology for the Preparation of Microparticles” (Ansun Biopharma, Inc., priority 2007, published 2019).

How the values were obtained:
[1] = Sialidase activity with fluorogenic substrate 4-MU-NANA; assay type: biochemical
Experimental: The sialidase activity of DAS181 was measured using the fluorogenic substrate 4-methylumbelliferyl-N-acetyl-α-D-neuraminic acid (4-MU-NANA; Sigma). One unit of sialidase is defined as the amount of enzyme that releases 10 nmol of MU from 4-MU-NANA in 10 minutes at 37° C. (50 mM CH3COOH—NaOH buffer, pH 5.5) in a reaction that contains 20 nmol of 4-MU-NANA in a 0.2 ml volume (Potier et al., Anal. Biochem., 94:287-296, 1979). The specific activity of DAS181 was determined to be 1,300 U/mg protein (0.77 μg DAS181 protein per unit of activity).

[2] = Microsphere formation, size and appearance by light microscopy; assay type: physicochemical
Experimental: 4) DAS181+5 mM sodium citrate, pH 5.0+10% isopropanol; • Plastic microcentrifuge tubes containing the cocktails with ingredients as described in 1)-4) above were gradually cooled from: • (a) ambient temperature (about 25° C.) to 4° C. by placing the cocktails in a refrigerator, followed by: • (b) cooling to −20° C. by placing the resulting cocktail from (a) in a freezer, followed by: • (c) freezing to −80° C. by placing the resulting cocktail from b) in a freezer.
Freezing to −80° C. is carried out to remove ingredients from the cocktail other than the microspheres (e.g., solvent, etc.) by freeze-drying. Cocktail 4) was prepared in triplicate, two aliquots in plastic tubes and one in a glass tube. One aliquot (in a plastic tube) was cooled as described above, while the two other aliquots (one in a plastic tube and one in a glass tube) were subjected to snap cooling/freezing by dipping the tubes into liquid nitrogen.
Upon freezing, all tubes were placed into the lyophilizer and the volatiles (water and isopropanol) were removed by sublimation, leaving the dry pellets.
The dry pellets recovered from the cocktails treated as described above, were tested for the presence of microspheres.
(§1) DAS181 was purified and used to prepare microspheres as described above in Example 1 (see cocktail 4)), using a combination of DAS181 protein (10 mg/ml), citrate counterion (sodium citrate, 5 mM) and isopropanol organic solvent (10%, 20% or 30%). The resulting cocktail solutions were cooled from ambient temperature (about 25° C.) to 4° C., followed by cooling to −20° C., followed by freezing to −80° C., as described in Example 1. Upon freezing to −80° C., the tubes are placed in a lyophilizer and the volatiles (water and isopropanol) were removed by sublimation, leaving the dry powder containing microspheres.
as §1, with “protein (5 mg/ml or 10” for “protein (10”, “isopropanol (5%” for “isopropanol organic solvent (10%, 20%”, “or 20%).” for “or 30%).”, “tubes were” for “tubes are”
DAS181 was purified and used to prepare microspheres as described above in Example 1 (see cocktail 4)), using a combination of DAS181 protein (10 mg/ml), citrate counterion (sodium citrate; 2 mM, 3 mM or 6 mM) and isopropanol (20%). The cocktail solutions were mixed in glass vials and cooled from +20° C. to −40° C. at a freeze ramp of 1° C. per minute in a Millrock Lab Series lyophilizer. Volatiles (water and isopropanol) were removed by sublimation at 100 mTorr with primary drying at −30° C. for 12 hours and secondary drying at 30° C. for 3 hours, leaving the dry powder containing microspheres.
To a cocktail solution containing 5 mg/ml DAS181, 5 mM sodium citrate, and 20% isopropanol, was added a surfactant (3.5% w/w lecithin, 0.7% w/w Span-85® (sorbitan trioleate), or 3.5% w/w oleic acid).

[3] = as above; assay type: physicochemical; remark: listed apart in the source

B1: DAS181: fusion protein: heparin (GAG) binding domain of human amphiregulin fused to a catalytic domain of Actinomyces Viscosus sialidase (SEQ ID NO:17) (protein)
chain: MGDHPQATPAPAPDASTELPASMSQAQHLAANTATDNYRIPAITTAPNGDLLISYDERPKDNGNGGSDAPNPNHIVQRRSTDGGKTWSAPTYIHQGTETGKKVGYSDPSYVVDHQTGTIFNFHVKSYDQGWGGSRGGTDPENRGIIQAEVSTSTDNGWTWTHRTITADITKDKPWTARFAASGQGIQIQHGPHAGRLVQQYTIRTAGGAVQAVSVYSDDHGKTWQAGTPIGTGMDENKVVELSDGSLMLNSRASDGSGFRKVAHSTDGGQTWSEPVSDKNLPDSVDNAQIIRAFPNAAPDDPRAKVLLLSHSPNPRPWSRDRGTISMSCDDGASWTTSKVFHEPFVGYTTIAVQSDGSIGLLSEDAHNGADYGGIWYRNFTMNWLGEQCGQKPAKRKKKGGKNGKNRRNRKKKNP
modifications: DAS181
specific activity of DAS181 ([1]; 4-MU-NANA, 37°C, pH 5.5, one unit releases 10 nmol MU in 10 minutes): 1,300 U/mg protein | DAS181 protein per unit of activity ([1]; same assay): 0.77 µg | size of microspheres ([2]; 5 mg/ml DAS181, 5 mM sodium citrate, 20% isopropanol): about 3 microns | dispersivity of microspheres formed with surfactant vs without ([2]; 5 mg/ml DAS181, 5 mM sodium citrate, 20% isopropanol + 3.5% w/w lecithin, 0.7% w/w Span-85 or 3.5% w/w oleic acid): improved dispersivity | size of microspheres ([2]; 10 mg/ml DAS181, 2 mM citrate, 20% isopropanol, +20°C to −40°C at 1°C per minute): 1 micron | size of microspheres ([2]; 10 mg/ml DAS181, 3 mM citrate, 20% isopropanol, +20°C to −40°C at 1°C per minute): 3 microns | size of microspheres ([2]; 10 mg/ml DAS181, 5 mM sodium citrate, 30% isopropanol, gradual cooling): 5-6 microns | size of microspheres ([2]; 10 mg/ml DAS181, 6 mM citrate, 20% isopropanol, +20°C to −40°C at 1°C per minute): 5 microns | size of microspheres ([3]; 5 mg/ml or 10 mg/ml DAS181, 5 mM sodium citrate, 5% isopropanol): about 1.5 micron | appearance of dry pellet ([3]; cocktail 2): 10 mg/ml DAS181, 5 mM glycine pH 5.0, 10% isopropanol, gradual cooling): a mixture of glass-like crystals and agglomerates with only a few microspheres | appearance of dry pellet ([3]; cocktail 4) (5 mM sodium citrate, 10% isopropanol) snap-frozen in liquid nitrogen in a glass tube): glass-like crystals and no microspheres | appearance of dry pellet ([3]; cocktail 4) (5 mM sodium citrate, 10% isopropanol) snap-frozen in liquid nitrogen in a plastic tube): agglomerated microspheres | appearance of dry pellet ([3]; cocktails 1) and 3): 10 mg/ml DAS181, 5 mM glycine or 5 mM sodium citrate pH 5.0, no organic solvent): no microspheres were observed | appearance of microspheres (microscopy and cascade impaction) ([3]; continuous mode: 10 mg/ml DAS181, 20% isopropanol, 2 mM sodium sulfate, heat exchanger, cooled from about 25°C to about −12°C): uniform microspheres with minimal aggregation and good dispersivity | appearance after lyophilization ([3]; same cocktail not chilled, poured directly into liquid nitrogen): no microspheres were observed
